Drawing on US20070248536A1 (SCIL PROTEINS, published 2007), this text covers binding result and Kd for five molecules.

One assay addresses T1, BSA (bovine, UniProt P02769 25-607).
T1 construct: Control antigen
Briefly: concentration-dependent ELISA, detection with anti-gamma-II-crystallin antibody-POD. As for the experimental part: The binding properties of the purified proteins were now tested as described above in a concentration-dependent ELISA. For this purpose, different concentrations (100 nM-10 μM) of the Affilin™ variations were employed and an anti-gamma-II-crystallin antibody (monoclonal antibody conjugate with POD) was employed as the detection antibody.
For orientation: An ELISA detects its analyte on a solid surface through an enzyme-linked reagent.

Assay [1] addresses proNGF. Briefly: concentration-dependent ELISA, proNGF coated, apparent KD. As for the experimental part:
FIG. 3: Concentration-dependent ELISA for the detection of the binding of SPC7-E9 to proNGF. The microtiter plate was coated with 10 μg/mi of proNGF. As the detection antibody served an anti-human gamma-II-crystallin antibody-POD conjugate in a dilution of 1:1000. The absorption values presented are mean values of two parallel measurements.

Assay [2] deals with proNGF. The experiment in a line: SPR (BIACORE), SPC7-E9 coupled through amino groups to a CM5 chip, proNGF as analyte. As for the experimental part:
FIG. 9: Sensorgrams of the Biacore experiments for the binding of SPC7-E9 to a CM5 chip with proNGF. 280 RU of […] were immobilized and different concentrations of proNGF passed over the chip. As the running buffer served HBS-EP with a flow rate of 30 μl/min.
2.) Furthermore, SPC7-E9 could be coupled unspecifically via surface-exposed amino groups (lysines) by means of NHS/EDC to the carboxyl groups of the BIACORE dextrane matrix in the following manner: The CM5 chip was activated for 7 min with NHS/EDC, and afterwards purified SPC7-E9 (in 20 mM Na phosphate buffer, pH 6.0) was passed over the chip for further 7 min. After the coupling was carried out the remaining reactive groups were deactivated for 7 min with 1 M ethanolamine (pH 8.5). For the analysis of dissociation constants the target proNGF was passed over the chip in different concentrations, the binding was monitored online (FIG. 9), and the curves were subsequently evaluated with the BiaEvaluation Software. […] After kinetic measurements the chip was regenerated with 0.1 glycin (pH 2.2), 10 mM HCl, 10 mM NaOh, 6 M Gua/HCl, 6 M urea and 20% ethanol. In this way, the binding activity of the Affilin™ chip was unchanged even after several regeneration cycles
For orientation: In SPR one partner is held on a chip, and binding of the other changes the refractive index at the surface.

Another assay addresses T2, human IgG Fc (human).
T2 construct: domain: Fc; The ELISAs used human monoclonal IgG Fc (Roche); Kept as one molecule; also called human monoclonal IgG Fc portion (Roche); polyclonal IgG Fc
The experiment in a line: SPR (BIACORE), IgG Fc immobilised on a CM5 chip, Affilin as analyte. As for the experimental part: In BIACORE experiments the dissociation constants of the three Affilin™ variations were determined. For this purpose, approx. 180 RU of human IgG Fc (50 μg/ml in 50 mM Na citrate, pH 5.0) was immobilized on a CM5 chip. Free binding sites were finally inactivated by 1 M ethanolamin (pH 8.5).
Then, at a flow of 30 μl/min, 6 different concentrations (166 nM-1 μM) were passed over the chip for 180 sec. Afterwards, at the same flow the chip was rinsed with HBS, 0.005% Surfactant P20 (Biacore) for 180 sec. From the resulting sensorgrams using the BiaEvaluation Software (Biacore, Uppsala, Sweden) the following dissociation constants of the Affilin™ variations to IgG Fc could be determined: SPC1-A1 with 230 nM, SPC1-A7 with 280 nM and SPC1-G3 with 800 nM. In competition experiments the specific binding of the Affilin™ variations to IgG Fc and not to the chip matrix could be detected (FIG. 2).

T1 sequence (P02769 25-607 limits assumed): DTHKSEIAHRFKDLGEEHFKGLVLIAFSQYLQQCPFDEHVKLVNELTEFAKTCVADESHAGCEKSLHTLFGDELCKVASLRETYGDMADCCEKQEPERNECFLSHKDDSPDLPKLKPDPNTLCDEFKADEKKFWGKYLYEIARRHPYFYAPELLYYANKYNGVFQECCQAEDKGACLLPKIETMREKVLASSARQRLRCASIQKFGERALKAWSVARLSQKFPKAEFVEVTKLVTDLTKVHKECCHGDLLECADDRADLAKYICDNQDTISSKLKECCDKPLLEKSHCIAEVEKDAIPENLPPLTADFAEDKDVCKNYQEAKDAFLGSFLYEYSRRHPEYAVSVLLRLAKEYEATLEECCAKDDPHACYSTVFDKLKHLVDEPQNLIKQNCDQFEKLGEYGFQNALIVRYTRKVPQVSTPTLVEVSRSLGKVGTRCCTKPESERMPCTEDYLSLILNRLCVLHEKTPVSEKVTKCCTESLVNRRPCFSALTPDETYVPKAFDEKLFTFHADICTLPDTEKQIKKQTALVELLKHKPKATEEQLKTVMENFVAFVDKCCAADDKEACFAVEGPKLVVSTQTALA

B1: human wildtype gamma-II-crystallin (other, UniProt P07316 1-175, looked up)
chain: MGKITFYEDRAFQGRSYECTTDCPNLQPYFSRCNSIRVESGCWMIYERPNYQGHQYFLRRGEYPDYQQWMGLSDSIRSCCLIPPHSGAYRMKIYDRDELRGQMSELTDDCISVQDRFHLTEIHSLNVLEGSWILYEMPNYRGRQYLLRPGEYRRFLDWGAPNAKVGSLRRVMDLY
notes: also called human wildtype gamma-crystallin
As for B1, the binding result with BSA is “no binding”.

B2: Affilin variation SPC7-E9 (designed binder)
chain: MGFICFLEDRAFQGRSYACDTDCPNLQPYFSRCNSISVLSGCWMIYERPNYQGHQYFLRRGEYPDYQQWMGLSDSIRSCCLIPPHSGAYRMKIYDRDELRGQMSELTDDCLSVQDRFHLTEIHSLNVLEGSWILYEMPNYRGRQYLLRPGEYRRFLDWGAPNAKVGSLRRVMDLYLEHHHHHH
notes: Directed against proNGF; also called SPCJ-E9 (including His6)
Sequence of proNGF (P01138 19-241): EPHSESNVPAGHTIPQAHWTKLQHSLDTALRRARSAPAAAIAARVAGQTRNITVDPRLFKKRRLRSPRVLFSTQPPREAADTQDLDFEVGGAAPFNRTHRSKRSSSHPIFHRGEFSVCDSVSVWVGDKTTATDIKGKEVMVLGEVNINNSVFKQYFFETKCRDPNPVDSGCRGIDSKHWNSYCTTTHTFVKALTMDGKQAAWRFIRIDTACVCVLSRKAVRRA
In the case of B2, the results for the Kd with proNGF [1] and with proNGF [2] were 200 nM and 1.4 nM, respectively.

B3: Affilin variation SPC1-A1 (designed binder)
chain: MGFIWFMEDRAFQGRRYDCGTDCPNLQPYFSRCNSIKVKSGCWMIYERPNYQGHRHQYFLRRGEYPDYQQWMGLSDSIRSCCLIPPHSGAYRMKIYDRDELRGQMSELTDDCLSVQDRFHLTEIHSLNVLEGSWILYEMPNYRGRQYLLRPGEYRRFLDWGAPNAKVGSLRRVMDLYA
notes: Selected from the human gamma-II-crystallin library CR20
As for B3, the Kd with human IgG Fc came out at 230 nM. The binding result with BSA is “no binding (tested: 100 nM-10 µM)”.

B4: Affilin variation SPC1-G3 (designed binder)
chain: MGSIIFLEDRAFQGRIYGCTTDCPNLQPYFSRCNSIVVQSGCWMIYERPNYQGHRHQYFLRRGEYPDYQQWMGLSDSIRSCCLIPPHSGAYRMKIYDRDELRGQMSELTDDCLSVQDRFHLTEIHSLNVLEGSWILYEMPNYRGRQYLLRPGEYRRFLDWGAPNAKVGSLRRVMDLYA
notes: Selected from library CR20
In the assay with human IgG Fc, B4 gave a Kd of 800 nM. Besides, the binding result with BSA is “no binding (tested: 100 nM-10 µM)”.

B5: Affilin variation SPC1-A7 (designed binder)
chain: MGLICFSEDRAFQGRRYMCLTDCPNLQPYFSRCNSINVWSGCWMIYERPNYQGHRHQYFLRRGEYPDYQQWMGLSDSIRSCCLIPPHSGAYRMKIYDRDELRGQMSELTDDCLSVQDRFHLTEIHSLNVLEGSWILYEMPNYRGRQYLLRPGEYRRFLDWGAPNAKVGSLRRVMDLYA
notes: Selected from library CR20; has a free cysteine in variable position 4; not shown: C-terminal tag of six histidines 'already present'
Molecule B5 showed a Kd in the assay with human IgG Fc of 280 nM. For the same molecule, in the assay with BSA, the binding result is recorded as “no binding (tested: 100 nM-10 µM)”.
